In patent publication US20240400618A1 (GRIFOLS DIAGNOSTIC SOLUTIONS, published 2024):

B1: pxEBNCP24_hACE2-AAA-p53-SBP (receptor)
chain: QSTIEEQAKTFLDKFNHEAEDLFYQSSLASWNYNTNITEENVQNMNNAGDKWSAFLKEQSTLAQMYPLQEIQNLTVKLQLQALQQNGSSVLSEDKSKRLNTILNTMSTIYSTGKVCNPDAPAECLLLEPGLNEIMANSLDYNERLWAWESWRSEVGKALRPLYEEYVVLKNEMARANHYEDYGDYWRGDYEVNGVDGYDYSRGQLIEDVEHTFEEIKPLYEHLHAYVRAKLMNAYPSYISPIGCLPAHLLGDMWGRFWTNLYSLTVPFGQKPNIDVTDAMVDQAWDAQRIFKEAEKFFVSVGLPNMTQGFWENSMLTDPGNVQKAVCHPTAWDLGKGDFRILMCTKVTMDDFLTAHHEMGHIQYDMAYAAQPFLLRNGANEGFHEAVGEIMSLSAATPKHLKSIGLLSPDFQEDNETEINFLLKQALTIVGTLPFTYMLEKWRWMVFKGEIPKDQWMKKWWEMKREIVGVVEPVPHDETYCDPASLFHVSNDYSFIRYYTRTLYQFQFQEALCQAAKHEGPLHKCDISNSTEAGQKLFNMLRLGKSEPWTLALENVVGAKNMNVRPLLNYFEPLFTWLKDQNKNSFVGWSTDWSPYADGGGSKPLDGEYFTLQIRGRERFEMFRELNEALELKDAQAGKEPGGGSGMDEKTTGWRGGHVVEGLAGELEQLRARLEHHPQGQREP
B2: pxEBNCP13_hACE2-AAA-SBP (receptor)
chain: QSTIEEQAKTFLDKFNHEAEDLFYQSSLASWNYNTNITEENVQNMNNAGDKWSAFLKEQSTLAQMYPLQEIQNLTVKLQLQALQQNGSSVLSEDKSKRLNTILNTMSTIYSTGKVCNPDAPAECLLLEPGLNEIMANSLDYNERLWAWESWRSEVGKALRPLYEEYVVLKNEMARANHYEDYGDYWRGDYEVNGVDGYDYSRGQLIEDVEHTFEEIKPLYEHLHAYVRAKLMNAYPSYISPIGCLPAHLLGDMWGRFWTNLYSLTVPFGQKPNIDVTDAMVDQAWDAQRIFKEAEKFFVSVGLPNMTQGFWENSMLTDPGNVQKAVCHPTAWDLGKGDFRILMCTKVTMDDFLTAHHEMGHIQYDMAYAAQPFLLRNGANEGFHEAVGEIMSLSAATPKHLKSIGLLSPDFQEDNETEINFLLKQALTIVGTLPFTYMLEKWRWMVFKGEIPKDQWMKKWWEMKREIVGVVEPVPHDETYCDPASLFHVSNDYSFIRYYTRTLYQFQFQEALCQAAKHEGPLHKCDISNSTEAGQKLFNMLRLGKSEPWTLALENVVGAKNMNVRPLLNYFEPLFTWLKDQNKNSFVGWSTDWSPYADGGSGMDEKTTGWRGGHVVEGLAGELEQLRARLEHHPQGQREP
B3: pxEBN9-ACE2-AAA-SBP-His (receptor)
chain: QSTIEEQAKTFLDKFNHEAEDLFYQSSLASWNYNTNITEENVQNMNNAGDKWSAFLKEQSTLAQMYPLQEIQNLTVKLQLQALQQNGSSVLSEDKSKRLNTILNTMSTIYSTGKVCNPDAPAECLLLEPGLNEIMANSLDYNERLWAWESWRSEVGKALRPLYEEYVVLKNEMARANHYEDYGDYWRGDYEVNGVDGYDYSRGQLIEDVEHTFEEIKPLYEHLHAYVRAKLMNAYPSYISPIGCLPAHLLGDMWGRFWTNLYSLTVPFGQKPNIDVTDAMVDQAWDAQRIFKEAEKFFVSVGLPNMTQGFWENSMLTDPGNVQKAVCHPTAWDLGKGDFRILMCTKVTMDDFLTAHHEMGHIQYDMAYAAQPFLLRNGANEGFHEAVGEIMSLSAATPKHLKSIGLLSPDFQEDNETEINFLLKQALTIVGTLPFTYMLEKWRWMVFKGEIPKDQWMKKWWEMKREIVGVVEPVPHDETYCDPASLFHVSNDYSFIRYYTRTLYQFQFQEALCQAAKHEGPLHKCDISNSTEAGQKLFNMLRLGKSEPWTLALENVVGAKNMNVRPLLNYFEPLFTWLKDQNKNSFVGWSTDWSPYADGGGSMDEKTTGWRGGHVVEGLAGELEQLRARLEHHPQGQREPHHHHHHHH

These binders were tested against pxENB9-FLS-CT-His (SARS-CoV-2, UniProt P0DTC2 15-1213) (assay: not given).
B1 showed a Kd of 1e-06 µM.
With B2 the Kd was 10.5 µM.
B3 showed a Kd of 13.4 µM.

What follows are binders tested against T1, pxENB17-RBD-His (SARS-CoV-2, UniProt P0DTC2 319-541) (assay: not given).
B1 gave a Kd of 0.000231 µM.
In the case of B2, the Kd is reported as 0.401 µM.
With B3 the Kd was 32.6 µM.

These binders were tested against T1, pxENB17-RBD-His (assay: BLI (Octet), ACE2 construct loaded on SA tips by its tag, RBD as analyte).
In the case of B1, the “Response, shift in Wavelength (nm)” value is reported as 0.028 nm.
B2 was tested, and the “Response, shift in Wavelength (nm)” value was 0.0102 nm.
In the case of B3, the “Response, shift in Wavelength (nm)” value is reported as 0.0002 nm.
